Laboratory results taken from patent US20220252601A1 (JW BIOSCIENCE, published 2022).
Where a chain is given by its changes, count along the chain named.

Tests used:
Test in all cases: indirect ELISA, antigen coated at 1 µg/ml
[1] = target: T1, CRS (cysteinyl-tRNA synthetase) (UniProt P49589 1-748, limits assumed)
T1 sequence (looked up): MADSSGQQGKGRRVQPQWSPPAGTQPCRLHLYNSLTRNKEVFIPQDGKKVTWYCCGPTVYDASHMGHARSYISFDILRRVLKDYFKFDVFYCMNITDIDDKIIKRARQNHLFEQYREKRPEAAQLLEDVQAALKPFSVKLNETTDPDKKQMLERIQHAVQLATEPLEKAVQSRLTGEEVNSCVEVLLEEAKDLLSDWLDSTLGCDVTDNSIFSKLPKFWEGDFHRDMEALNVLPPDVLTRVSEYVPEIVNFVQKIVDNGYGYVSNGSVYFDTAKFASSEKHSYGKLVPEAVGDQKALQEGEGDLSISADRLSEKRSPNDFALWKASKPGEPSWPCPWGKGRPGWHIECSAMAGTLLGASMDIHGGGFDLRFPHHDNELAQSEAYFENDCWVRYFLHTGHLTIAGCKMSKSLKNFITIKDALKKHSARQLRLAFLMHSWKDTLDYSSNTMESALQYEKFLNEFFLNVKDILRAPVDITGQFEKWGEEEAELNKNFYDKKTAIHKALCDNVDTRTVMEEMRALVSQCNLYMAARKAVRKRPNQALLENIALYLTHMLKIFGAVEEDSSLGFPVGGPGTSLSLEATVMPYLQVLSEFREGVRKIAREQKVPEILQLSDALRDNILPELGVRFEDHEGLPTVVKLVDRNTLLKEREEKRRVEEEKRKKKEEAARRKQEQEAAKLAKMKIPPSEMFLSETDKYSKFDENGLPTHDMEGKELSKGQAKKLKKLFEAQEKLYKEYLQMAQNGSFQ

[2] = target: T2, AIMP1 (aminoacyl tRNA synthase complex-interacting multifunctional protein 1) (UniProt Q12904 1-312, limits assumed)
T2 construct: also called p43
T2 sequence (looked up): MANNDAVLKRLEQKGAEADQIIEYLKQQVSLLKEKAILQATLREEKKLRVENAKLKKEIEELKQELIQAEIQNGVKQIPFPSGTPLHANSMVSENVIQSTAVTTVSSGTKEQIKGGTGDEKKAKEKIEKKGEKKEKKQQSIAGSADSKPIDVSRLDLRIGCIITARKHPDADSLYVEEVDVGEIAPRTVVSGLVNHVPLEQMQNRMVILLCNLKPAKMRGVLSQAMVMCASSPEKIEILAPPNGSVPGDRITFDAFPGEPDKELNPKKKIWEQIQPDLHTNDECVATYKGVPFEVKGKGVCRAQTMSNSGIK

[3] = target: T3, GRS (glycyl tRNA synthetase) (UniProt P41250 55-739, limits assumed)
T3 sequence (looked up): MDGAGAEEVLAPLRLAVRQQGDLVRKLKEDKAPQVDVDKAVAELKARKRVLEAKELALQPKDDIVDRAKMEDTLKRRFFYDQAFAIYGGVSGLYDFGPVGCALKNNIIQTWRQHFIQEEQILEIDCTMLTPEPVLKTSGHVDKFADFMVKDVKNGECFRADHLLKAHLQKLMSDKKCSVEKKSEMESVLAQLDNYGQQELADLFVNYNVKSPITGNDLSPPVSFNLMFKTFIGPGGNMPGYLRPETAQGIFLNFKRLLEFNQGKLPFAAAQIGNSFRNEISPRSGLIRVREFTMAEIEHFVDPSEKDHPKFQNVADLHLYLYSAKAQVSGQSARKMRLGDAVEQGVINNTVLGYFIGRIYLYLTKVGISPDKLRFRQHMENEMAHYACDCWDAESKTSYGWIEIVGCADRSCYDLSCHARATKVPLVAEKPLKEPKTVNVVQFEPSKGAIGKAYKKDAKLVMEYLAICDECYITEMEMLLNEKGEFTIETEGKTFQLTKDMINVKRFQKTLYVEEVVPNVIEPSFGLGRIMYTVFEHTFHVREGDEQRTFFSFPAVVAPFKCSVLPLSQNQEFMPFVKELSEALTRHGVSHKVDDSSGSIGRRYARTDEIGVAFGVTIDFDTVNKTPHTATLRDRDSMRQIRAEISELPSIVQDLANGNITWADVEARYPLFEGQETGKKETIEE

[4] = target: KRS (lysyl tRNA synthetase) (UniProt Q15046 1-597, limits assumed)

Measured: binding result

Sequence of KRS (lysyl tRNA synthetase) (Q15046 whole entry): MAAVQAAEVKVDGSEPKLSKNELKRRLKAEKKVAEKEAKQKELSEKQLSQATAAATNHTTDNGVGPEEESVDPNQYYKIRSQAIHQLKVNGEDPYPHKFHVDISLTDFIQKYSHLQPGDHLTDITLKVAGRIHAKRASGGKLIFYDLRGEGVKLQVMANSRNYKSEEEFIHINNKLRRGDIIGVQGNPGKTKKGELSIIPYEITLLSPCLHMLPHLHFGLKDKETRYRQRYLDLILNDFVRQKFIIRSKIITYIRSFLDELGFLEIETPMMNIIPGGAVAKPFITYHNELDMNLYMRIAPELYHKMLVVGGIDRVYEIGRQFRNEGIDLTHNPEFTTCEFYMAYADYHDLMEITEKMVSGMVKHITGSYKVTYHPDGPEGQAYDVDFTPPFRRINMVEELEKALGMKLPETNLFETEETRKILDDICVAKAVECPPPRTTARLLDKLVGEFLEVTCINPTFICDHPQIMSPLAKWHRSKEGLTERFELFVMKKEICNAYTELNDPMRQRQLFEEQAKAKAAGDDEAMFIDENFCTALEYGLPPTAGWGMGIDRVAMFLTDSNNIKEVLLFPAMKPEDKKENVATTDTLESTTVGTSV

B1: 3B6 (antibody, V domains shown)
VH: EVQLLESGGGLVQPGGSLRLSCAASGFTFSSYSMSWVRQAPGKGLEWVSAISYDNGNTYYADSVKGRFTISRDNSKNTLYLQMNSLRAEDTAVYYCAKGATTQPHTSFDYWGQGTLVTVNS
VL: QSVLTQPPSASGTPGQRVTISCSGSSSNIGNNNVSWYQQLPGTAPKLLIYYNSHRPSGVPDRFSGSKSGTSASLAISGLRSEDEADYYCGTWDASLSAYVFGGGTKLTVL
modifications: Antibody was biotin-attached in the ELISA of Example 5; site not stated.
no binding (tested: 500 ng/ml): all assays above

B2: 4G4 (antibody, V domains shown)
VH: EVQLLESGGGLVQPGGSLRLSCAASGLTFSNYAMSWVRQAPGKGLEWVSWISPGDGNKYYADSVRGRFTVSRDNSKNTLYLQMNSLRAEDTAVYYCARVTIPCRRTTCYSANGMDVWGQGTLVTVSS
VL: B1 VL with N31S, N33S, S35T, Y51H, N52D, R55P, G90A, T91A, A94D, A98G
modifications: Antibody was biotin-attached in the ELISA of Example 5; site not stated.
no binding (tested: 500 ng/ml): all assays above

B3: 4H9 (antibody, V domains shown)
VH: EVQLLESGGGLVQPGGPLRLSCAASGFTFSNYAMSWVRQAPGKGLEWVSSIYPDGGGIYYADSVKGRFTISRDNSKNTLYLQMNSLRAEDTAVYYCARDLYPFGPDTFDYWGQGTLVTVSS
VL: B1 VL with N31S, N33D, S35T, Y51D, H54K, T91A, A94D, A98G
modifications: Antibody was biotin-attached in the ELISA of Example 5; site not stated.
no binding (tested: 500 ng/ml): all assays above

B4: 1D4C3 (antibody, V domains shown)
VH: QAYLQQSGAELVRPGASVKMSCKASGYTFTSYNMHWVKQTPRQGLEWIGAIYPGNGDSSYNQKFKGKATLTVGKSSSTAYMQLSSLTSEDSAVYFCARWHYGSTYYAMDYWGQGTSVTVSS
VL: DIQMTQTTSSLSASLGDRVTISCRASQDISNYLNWFQQKPDGTVKLLIYYTSRLHSGVPSRFSGSGSGTDYSLTISNLEQEDFATYFCQQGKTLPHTFGGGTKLEIK
modifications: Antibody was biotin-attached in the ELISA of Example 5; site not stated.
notes: detected with anti-mouse HRP; also called 1D4C4
no binding (tested: 500 ng/ml): all assays above

B5: 3B10H5 (antibody, V domains shown)
VH: B4 VH with M34L, E46K, S58T, G73D, T104S
VL: B4 VL with F36Y, Y49S, F83I, K92Y
modifications: Antibody was biotin-attached in the ELISA of Example 5; site not stated.
notes: detected with anti-mouse HRP
no binding (tested: 500 ng/ml): all assays above
